In patent US20150258194A1, “MODULATING TRANSENDOTHELIAL MIGRATION AND RECRUITMENT OF GRANULOCYTES BY MODULATING C-MET PATHWAY” (VIB VZW, priority 2012, published 2015):

Assays:
[1] = test system: LLC cancer cells; assay: Cytotoxicity assay: LLC cancer cell killing by neutrophils; assay type: cell-based, mouse
Experimental: Cytotoxicity assay: LLC-shMet were transduced with a luciferase-expressing lentivirus (EXhLUC-Lvl 14 from GeneCopoeia); 104 LLC were seeded in DMEM 10% FBS in 96-multiwell. After 4 h, 0.2×10^6 neutrophils purified from the blood of LLC-tumor bearing mice or sorted from LLC-tumors were co-cultured with the LLC in DMEM 2% FBS for 4 hours at 37° C., with or without 100 ng/ml HGF or 1 mM L-NMMA (SIGMA). After washing, adherent cells were lysate in 0.2% Tryton 1 mM DTT.

[2] = test system: Met expression in neutrophils; assay: Q-PCR / Western blot of Met expression in mouse neutrophils; assay type: cell-based; details: naïve mouse neutrophils
Experimental: Western blot: 2×10^6 bone marrow neutrophils from WT mice were stimulated with TCM, CCM, 100 ng/ml of murine TNF-α (or mock medium 0% FBS or 10% FBS as control) for 20 hours at 37° C. For the co-culture with HUVEC, a monolayer of HUVEC was stimulated for 4 hours with 5 ng/ml IL-1 at 37° C., and washed before neutrophil seeding. After 20 hours of stimulation, neutrophils were collected using Cell Dissociation Buffer, Enzyme Free, PBS-Based (Gibco). Cells were washed in PBS, lysed in 15 μl of a protease inhibitor mixture and incubated for 15 minutes on ice. The stock solution was obtained by dissolving one tablet of Complete Mini protease inhibitor mixture (CI, Roche) in 5 ml of PBS with 2 mM diisopropyl fluorophosphate (DFP; Acros Organics, Morris Plains, N.J.). After addition of an equal amount of 2×SDS sample buffer supplemented with 4% 2-mercaptoethanol, the lysates were boiled for 15 minutes and kept at -80° C. until use. 30×10^6 neutrophils purified from healthy volunteer blood and stimulated with A549-CM, 100 ng/ml of human TNF-α, 50 ng/ml LPS (or mock medium 10% FBS as control) for 20 hours. Cells were incubated with DFP 2.7 mM for 15' at 4° C., collected and washed in PBS, DFP 2.7 mM, CI 1X, and lysed in hot […] buffer (25% SDS 10%, 25% Tris-HCl pH 6.8) at 96° C. for 10'. Cell lysates were sonicated, cleared and quantified. 6× loading buffer was added before loading on the gel. The following antibodies were used: mouse anti-mouse Met (clone 3D4; Invitrogen), mouse anti-mouse β-actin (Santa Cruz), rabbit anti-human Met (clone D1C2-XP; Cell Signaling), HRP-conjugated anti-beta-tubulin (Abcam). Signal was visualized by Enhanced Chemiluminescent Reagents (ECL, Invitrogen) or West Femto by Thermo Scientific according to the manufacturer's instructions. Quantitative RT-PCR: for mRNA analysis, 1×10^5 or 3×10^5 mouse or human neutrophils, respectively, were incubated in normoxic (21% oxygen) or hypoxic condition (1% oxygen) or stimulated with TCM (plus 50 μg/ml Enbrel or human IgG when indicated), CCM, A549-CM, 100 ng/ml of murine or human TNF-α, 50 ng/ml LPS, or mock medium in 96-multiwell for 4 hours at 37° C. 2×10^5 HUVEC were seeded in 24-multiwell coated with 0.1% gelatin and stimulated with 5 ng/ml IL-1 in DMEM 10% FBS for 4 hours at 37° C. Cells were washed in PBS, collected in RLT buffer (QIAGEN®) and kept at -80° C. RNA was extracted with an RNase Micro kit (QIAGEN®) according to manufacturer's instructions. Reverse transcription to cDNA was performed with the SuperScript III Reverse Transcriptase (Invitrogen) according to manufacturer's protocol. […]

[3] = molecular target: MET (c-Met, HGF receptor) on mouse neutrophils (mouse) (UniProt P16056); assay: cell-based or functional assay
[4] = test system: neutrophils; assay: Transmigration and migration assay of neutrophils; assay type: cell-based, mouse
Experimental: Transmigration and Migration Assay: For the transmigration assay, 2×10^5 HUVEC were seeded on 3 μm polycarbonate membrane (Transwell; Costar) previously coated with 0.1% gelatin in M199 20% FBS. After 12 h, HUVEC were stimulated for 4 hours at 37° C. in DMEM 10% FBS with 5 ng/ml IL-1 and then washed. 5×105 WBC were seeded on top of the endothelial monolayer, while mock medium (+/− decoy Met), TCM (+/− decoy Met) or 50 ng/ml murine HGF was added in the bottom. After 2 hours at 37° C., transmigrated cells were collected from the lower chambers and from the bottom part of the filter with cold PBS 0.5% EDTA. Cells were stained and Ly6G+ cells quantified as above. In the migration assays WBC were seeded directly on top of 3 μm polycarbonate porous membranes.

[5] = test system: Ly6G+ cells; assay: Air pouch assay: neutrophil exudation into subcutaneous air pouches; assay type: in vivo; details: 200 ng/mouse, 4 hours; for recruitment of Ly6G+ cells into air pouch: WT→WT mice
Experimental: Air Pouch Assay: to create subcutaneous air pouches, bone marrow transplanted WT and KO mice were injected with 3 ml of sterile air by dorsal subcutaneous injection with a butterfly 23G needle on day 0 and on day 3. On day 6, 200 ng/mouse of CXCL1 or murine HGF in 0.5 ml PBS-Heparin or PBS-Heparin as control, were injected in the dorsal camera created with the previous injection. After 4 hours, inflammatory cells were harvested by washing the pouch with 8 ml of PBS. Cells were stained with Ly6G-APC, washed and resuspended in PBS-BSA 0.1% with unlabeled counting beads and quantified with FACS Canto II (BD Bioscience).

[6] = test system: β2-integrin; assay: Soluble ICAM-1 binding assay and co-immunoprecipitation of active β2-integrin; assay type: cell-based
[7] = test system: neutrophils; assay: Adhesion assay: neutrophil adhesion to HUVEC; assay type: cell-based, mouse
Experimental: Adhesion Assay: 4×10^4 HUVEC were seeded in M199 20% FBS in 96-multiwell previously coated with 0.1% gelatin. After 12 h, HUVEC were stimulated with 5 ng/ml IL-1 in DMEM 10% FBS at 37° C. After 4 hours the endothelial monolayer was thoroughly washed and 2.5×105 WBC were seeded on top, with or without murine HGF (50 ng/ml). After 15′ non-adherent cells were washed out whereas adherent cells were detached by using Cell Dissociation Buffer, Enzyme Free, PBS-Based (Gibco). Cells were stained with Ly6G-APC, washed and resuspended in PBS-BSA 0.1% with unlabeled counting beads (BD Bioscience) and quantified with FACS Canto II (BD Bioscience).

[8] = test system: neutrophils; assay: Nitric oxide measurement by FACS (DAF-FM) in neutrophils; assay type: cell-based, mouse; details: HGF 100 ng/ml
Experimental: Nitric oxide measurement by FACS: neutrophils isolated from the blood of WT or KO LLC tumor bearing mice were co-cultured for 4 hours with LLC shMet, washed, and resuspended in PBSHepes 20 mM, incubated for 10′ with 5 μM DAF-FM diacetate (Molecular probes) in the absence or presence of HGF (100 ng/ml) at 37° C., washed and analyzed by FACS.

Molecule: CNC(=N)NCCC[C@H](N)C(=O)O [L-NMMA, reference compound]
- HGF-induced cytotoxicity of neutrophils ([1]; HGF 100 ng/ml plus 1 mM L-NMMA): decreased HGF-induced cytotoxicity to the level of Met KO neutrophils
- cytotoxicity of intratumoral WT neutrophils against cancer cells ([1]; neutrophils sorted from LLC tumors, 1 mM L-NMMA): decreased the cytotoxicity of WT neutrophils to the levels of KO neutrophils

Molecule: TNF-a
- upregulation of MET at RNA and protein levels [2]: able to upregulate MET

Molecule: Hepatocyte Growth Factor (HGF), murine (from UniProt Q08048 33-728) (ligand)
- adhesion of neutrophils to an activated endothelium (HUVEC pre-stimulated with IL-1), FACS count [3]: 48%

B1: decoy MET: soluble HGF-trap consisting of the extracellular portion of MET (protein, UniProt P08581 25-932, looked up)
extracellular domain: ECKEALAKSEMNVNMKYQLPNFTAETPIQNVILHEHHIFLGATNYIYVLNEEDLQKVAEYKTGPVLEHPDCFPCQDCSSKANLSGGVWKDNINMALVVDTYYDDQLISCGSVNRGTCQRHVFPHNHTADIQSEVHCIFSPQIEEPSQCPDCVVSALGAKVLSSVKDRFINFFVGNTINSSYFPDHPLHSISVRRLKETKDGFMFLTDQSYIDVLPEFRDSYPIKYVHAFESNNFIYFLTVQRETLDAQTFHTRIIRFCSINSGLHSYMEMPLECILTEKRKKRSTKKEVFNILQAAYVSKPGAQLARQIGASLNDDILFGVFAQSKPDSAEPMDRSAMCAFPIKYVNDFFNKIVNKNNVRCLQHFYGPNHEHCFNRTLLRNSSGCEARRDEYRTEFTTALQRVDLFMGQFSEVLLTSISTFIKGDLTIANLGTSEGRFMQVVVSRSGPSTPHVNFLLDSHPVSPEVIVEHTLNQNGYTLVITGKKITKIPLNGLGCRHFQSCSQCLSAPPFVQCGWCHDKCVRSEECLSGTWTQQICLPAIYKVFPNSAPLEGGTRLTICGWDFGFRRNNKFDLKKTRVLLGNESCTLTLSESTMNTLKCTVGPAMNKHFNMSIIISNGHGTTQYSTFSYVDPVITSISPKYGPMAGGTLLTLTGNYLNSGNSRHISIGGKTCTLKSVSNSILECYTPAQTISTEFAVKLKIDLANRETSIFSYREDPIVYEIHPTKSFISGGSTITGVGKNLNSVSVPRMVINVHEAGRNFTVACQHRSNSEIICCTTPSLQQLNLQLPLKTKAFFMLDGILSKYFDLIYVHNPVFKPFEKPVMISMGNENVLEIKGNDIDPEAVKGEVLKVGNKSCENIHLHSEAVLCTVPNDLLKLNSELNIEWKQAISSTVLGKVIVQPDQNFT
modifications: extracellular domain
- TCM-induced transendothelial migration of Met KO neutrophils ([4]; Met KO neutrophils, TCM, decoy Met): did not further impair the migration of Met KO neutrophils
- TCM-promoted transendothelial migration of WT neutrophils ([4]; WT neutrophils, TCM, decoy Met 0.5 ng/μl): abated this effect

B2: CXCL1: well-known neutrophil chemoattractant, positive control of neutrophil migration (protein, UniProt P12850 25-96, looked up)
Growth-regulated alpha protein: APIANELRCQCLQTMAGIHLKNIQSLKVLPSGPHCTQTEVIATLKNGREACLDPEAPLVQKIVQKMLKGVPK
- recruitment of neutrophils into air pouch in KO→WT mice [5]: did not change
- recruitment of Ly6G+ cells into air pouch [5]: equally good in recruiting Ly6G+ cells

B3: HGF: Hepatocyte Growth Factor, the ligand of the MET tyrosine kinase receptor (protein)
chain: QKKRRNTLHEFKKSAKTTLTKEDPLLKIKTKKVNSADECANRCIRNRGFTFTCKAFVFDKSRKRCYWYPFNSMSSGVKKGFGHEFDLYENKDYIRNCIIGKGGSYKGTVSITKSGIKCQPWNSMIPHEHSFLPSSYRGKDLQENYCRNPRGEEGGPWCFTSNPEVRYEVCDIPQCSEVECMTCNGESYRGPMDHTESGKTCQRWDQQTPHRHKFLPERYPDKGFDDNYCRNPDGKPRPWCYTLDPDTPWEYCAIKTCAHSAVNETDVPMETTECIQGQGEGYRGTSNTIWNGIPCQRWDSQYPHKHDITPENFKCKDLRENYCRNPDGAESPWCFTTDPNIRVGYCSQIPKCDVSSGQDCYRGNGKNYMGNLSKTRSGLTCSMWDKNMEDLHRHIFWEPDASKLNKNYCRNPDDDAHGPWCYTGNPLIPWDYCPISRCEGDTTPTIVNLDHPVISCAKTKQLRVVNGIPTQTTVGWMVSLKYRNKHICGGSLIKESWVLTARQCFPARNKDLKDYEAWLGIHDVHERGEEKRKQILNISQLVYGPEGSDLVLLKLARPAILDNFVSTIDLPSYGCTIPEKTTCSIYGWGYTGLINADGLLRVAHLYIMGNEKCSQHHQGKVTLNESELCAGAEKIGSGPCEGDYGGPLICEQHKMRMVLGVIVPGRGCAIPNRPGIFVRVAYYAKWIHKVILTYKL
- upregulation of MET at RNA and protein levels [2]: not
- percentage of granulocytes bound to ICAM-1 ([6]; soluble ICAM-1 binding assay): increases the percentage of granulocytes bound to ICAM-1
- active β2-integrin (immunoprecipitation) ([6]; upon HGF stimulation): more active Iβ2-integrin
- recruitment of neutrophils into air pouch in KO→WT mice [5]: completely abolished
- recruitment of Ly6G+ cells into air pouch [5]: equally good in recruiting Ly6G+ cells
- adhesion of Met KO neutrophils to an activated endothelium ([7]; Met KO neutrophils, HUVEC (IL-1)): did not modify the behavior of KO cells
- increase of adhesion of WT neutrophils to an activated endothelium ([7]; WT neutrophils, HUVEC (IL-1), HGF 50 ng/ml): 48%
- neutrophil adhesion to nonactivated ECs ([7]; nonactivated ECs): not affected
- transendothelial migration of Met KO neutrophils ([4]; Met KO neutrophils, inflamed-like endothelium): completely lost this response to HGF
- transendothelial migration (chemotaxis) of WT neutrophils ([4]; WT neutrophils, inflamed-like endothelium, HGF 50 ng/ml): promoted their chemotaxis through an inflamed-like endothelium
- migration of neutrophils through a naked porous membrane or a non-activated endothelium ([4]; no activated endothelium): did not influence the migration of neutrophils
- NO release of KO neutrophils ([8]; Met KO circulating neutrophils with LLC): not
- NO release of WT neutrophils ([8]; WT circulating neutrophils with LLC): augmented
- cytotoxicity of KO neutrophils ([1]; Met KO circulating neutrophils with LLC, HGF 100 ng/ml): not
- cytotoxicity of WT neutrophils ([1]; WT circulating neutrophils with LLC, HGF 100 ng/ml): augmented
